The text below walks through data of US20030157685.

Data set [1] addresses His-Max made in bacteria, P61244.
Data set [2] addresses T1, endogenous Omi protein precipitated from 293 cells with the anti-Omi polyclonal antibody.
T1 chain: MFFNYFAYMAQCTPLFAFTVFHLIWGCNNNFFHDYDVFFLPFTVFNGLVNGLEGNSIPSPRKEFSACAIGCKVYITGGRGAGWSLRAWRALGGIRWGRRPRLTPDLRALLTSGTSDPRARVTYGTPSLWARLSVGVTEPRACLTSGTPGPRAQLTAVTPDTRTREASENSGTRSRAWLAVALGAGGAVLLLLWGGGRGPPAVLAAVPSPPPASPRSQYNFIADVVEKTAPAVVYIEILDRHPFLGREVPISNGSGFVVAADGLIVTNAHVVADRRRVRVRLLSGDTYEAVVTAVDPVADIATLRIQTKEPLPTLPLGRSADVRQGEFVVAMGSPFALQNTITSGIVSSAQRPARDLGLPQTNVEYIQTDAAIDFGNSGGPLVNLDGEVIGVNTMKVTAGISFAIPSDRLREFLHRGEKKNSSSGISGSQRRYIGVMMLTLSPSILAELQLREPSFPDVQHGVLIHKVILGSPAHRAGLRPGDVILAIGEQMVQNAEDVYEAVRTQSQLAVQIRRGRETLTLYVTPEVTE

Chain of His-Max made in bacteria, P61244 (P61244 whole entry): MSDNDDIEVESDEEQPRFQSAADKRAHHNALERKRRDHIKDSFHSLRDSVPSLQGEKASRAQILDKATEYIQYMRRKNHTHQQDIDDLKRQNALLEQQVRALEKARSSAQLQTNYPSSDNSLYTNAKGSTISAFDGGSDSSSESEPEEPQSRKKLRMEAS

B1: Mxi2 as a hemaglutinin epitope-tagged fusion (Mxi2-HA), expressed in 293 cells (protein)
chain: MSQERPTFYRQELNKTIWEVPERYQNLSPVGSGAYGSVCAAFDTKTGLRVAVKKLSRPFQSIIHAKRTYRELRLLKHMKHENVIGLLDVFTPARSLEEFNDVYLVTHLMGADLNNIVKCQKLTDDHVQFLIYQILRGLKYIHSADIIHRDLKPSNLAVNEDCELKILDFGLARHTDDEMTGYVATRWYRAPEIMLNWMHYNQTVDIWSVGCIMAELLTGRTLFPGTDHIDQLKLILRLVGTPGAELLKKISSESARNYIQSLTQMPKMNFANVFIGANPLGKLTIYPHLMDIELVMI
Consider B1, for which, in data set [1], the “phosphorylation of Max by isolated HA-Mxi2 (autoradiograph)” value was “The autoradiograph shows Omi as well as Max protein was phosphorylated” and the “phosphorylation of Max in the same kinase reaction” value is on record as “Max was also phopshorylated very efficiently”. Also, in data set [2], the “phosphorylation of Omi by isolated HA-Mxi2 (autoradiograph)” value was “The autoradiograph shows Omi as well as Max protein was phosphorylated”; the “phosphorylation of Omi in a kinase reaction on the immunoprecipitated Omi/Mxi2 complex ([gamma-32P]ATP, autoradiography)” value is “Phosphorylated Omi is shown as a doublet of phosphorylated polypeptides with a molecular weight of 57-59 kD”; the “proteolytic activity of Omi (colorimetric assay, absorbance at 450 nm)” value is recorded as “the proteolytic activity of Omi increases dramatically when phosphorylated by Mxi2”.
